Biological target: Zika virus envelope (E) glycoprotein, strain H/PF/2013 (French Polynesia), on mature infectious virions (Zika virus strain H/PF/2013, French Polynesia)
Assay: cryo-EM structure; mature ZIKV H/PF/2013 particles incubated with ZIKV-117 Fab at 4 °C for 2–3 h, flash-frozen on lacey carbon grids; icosahedral reconstruction at 6.2 Å; E dimer (PDB 5IRE) and Fab domains (ZV-67, PDB 5KVG) fitted; occupancies by EMfit

B1: ZIKV-117 Fab (Fab fragment of the human monoclonal antibody ZIKV-117) (Fab, V domains shown)
VH: QVQLVESGGGVVRPGGSLRLSCAASGFTFKNYGIHWVRQAPGKGPEWVAFVRYDGNNKYYADSVKGRFTISRDNAKNTLSLQMNSLRVEDTAVYFCARDPETFGGFDYWGQGTLVTVSS
VL: ETVMTQSPATLSVSPGERGTLSCRASESVSSNLAWYQQKPGKAPRLLIYGASTRATGIPDRFSGSGSGTEFTLTISSLQSEDFAVYYCQQYYYSPRTFGQGTKVEVK
B1 showed a Fabs bound per virion at saturation (Fabs per virion (180 sites)) of 60, a Fabs per virion at the 2f sites (Fabs per virion) of 21 and a Fabs per virion at the 3f sites (Fabs per virion) of 35. It also gave an occupancy at the 2f site (average Fab density relative to E protein density) of 35% and an occupancy at the 3f site (average Fab density relative to E protein density) of 58%.
